Laboratory results: publication PMC11578449 (PLOS Pathogens, 2024)

B1: Ty-BatCoV-HKU4 spike receptor binding domain (residues E372-Y611) (domain or fragment)
chain: EASATGTFIEQPNATECDFSPMLTGVAPQVYNFKRLVFSNCNYNLTKLLSLFAVDEFSCNGISPDSIARGCYSTLTVDYFAYPLSMKSYIRPGSAGNIPLYNYKQSFANPTCRVMASVLANVTITKPHAYGYISKCSRLTGANQDVETPLYINPGEYSICRDFSPGGFSEDGQVFKRTLTQFEGGGLLIGVGTRVPMTDNLQMSFIISVQYGTGTDSVCPMLDLGDSLTITNRLGKCVDY

Columns and labels:
[1] = molecular target: human dipeptidyl peptidase 4 ectodomain (hDPP4, residues 39-766) (human) (UniProt P27487); assay: SPR; BIAcore T200, 25 °C; […]; 1:1 Langmuir binding model
Chain of human dipeptidyl peptidase 4 ectodomain (hDPP4, residues 39-766) (human) (P27487 39-766): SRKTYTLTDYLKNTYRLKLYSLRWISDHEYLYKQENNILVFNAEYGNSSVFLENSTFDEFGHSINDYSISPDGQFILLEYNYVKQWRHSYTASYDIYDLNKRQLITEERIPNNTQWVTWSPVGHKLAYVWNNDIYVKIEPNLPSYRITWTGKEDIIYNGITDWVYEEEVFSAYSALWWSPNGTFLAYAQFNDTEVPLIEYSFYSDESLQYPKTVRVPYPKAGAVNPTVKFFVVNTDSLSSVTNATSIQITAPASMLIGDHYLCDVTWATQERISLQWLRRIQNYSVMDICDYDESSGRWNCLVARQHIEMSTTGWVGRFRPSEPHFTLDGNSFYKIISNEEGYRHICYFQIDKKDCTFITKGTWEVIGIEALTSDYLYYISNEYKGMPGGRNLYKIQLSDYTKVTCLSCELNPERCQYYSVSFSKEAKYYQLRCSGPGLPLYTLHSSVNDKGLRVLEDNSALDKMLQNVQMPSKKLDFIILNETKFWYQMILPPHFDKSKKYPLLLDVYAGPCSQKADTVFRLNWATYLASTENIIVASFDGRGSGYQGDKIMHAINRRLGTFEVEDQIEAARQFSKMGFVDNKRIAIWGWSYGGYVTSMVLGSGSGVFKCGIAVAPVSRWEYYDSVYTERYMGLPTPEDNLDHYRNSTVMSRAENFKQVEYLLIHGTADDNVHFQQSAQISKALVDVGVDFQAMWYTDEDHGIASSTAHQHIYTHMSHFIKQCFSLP

[2] = molecular target: T1, human dipeptidyl peptidase 4 ectodomain (hDPP4, residues 39-766) (human, UniProt P27487 39-766); assay: as above; details: both partners purified
T1 construct: also called human DPP4
T1 sequence (P27487 39-766): as above

| Molecule | koff [1] [s⁻¹] | kon [1] [M⁻¹ s⁻¹] | koff [2] [s⁻¹] | kon [2] [M⁻¹ s⁻¹] |
| --- | --- | --- | --- | --- |
| MjHKU4r-CoV-1 spike receptor binding domain (residues 375-614) (domain or fragment) | 0.00368 | 17000 | – | – |
| B1 | – | – | 0.00684 | 1070 |
